Test results as given in publication PMC12148371 (iScience, 2025).

Target: EBOV-GP-RBD without the glycan cap and MLD, displayed on the cell surface (EGPdcm, wild type) (Zaire ebolavirus)
Experiment: flow cytometry on cells

Substance: NPC1-His (from UniProt O15118 23-1278) (receptor)
- percent NPC1 binding (positive cells): 94.7%
- percent NPC1 binding (positive cells), without competitor: 76.4%
